From patent publication US20220324953A1 (JIANGSU HENGRUI MEDICINE, published 2022)

Columns and labels:
[1] = biological target: T1, mouse CTGF (antigen of the Biacore assay) (mouse, UniProt P29268 26-348); assay: Biacore, antibody captured on Protein A, mouse CTGF in flow, 1:1 fit
T1 construct: also called mouse CTGF protein
T1 sequence (looked up): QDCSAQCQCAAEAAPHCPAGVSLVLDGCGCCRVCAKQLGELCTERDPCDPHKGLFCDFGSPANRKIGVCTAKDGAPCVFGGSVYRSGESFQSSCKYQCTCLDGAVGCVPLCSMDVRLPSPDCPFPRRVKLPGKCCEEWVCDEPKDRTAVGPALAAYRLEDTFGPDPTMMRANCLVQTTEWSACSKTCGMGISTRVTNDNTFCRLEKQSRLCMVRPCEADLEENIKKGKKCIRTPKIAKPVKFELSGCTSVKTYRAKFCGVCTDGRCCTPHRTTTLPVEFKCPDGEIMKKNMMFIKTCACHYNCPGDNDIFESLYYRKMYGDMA
Text: (§1) A certain amount of each of the test antibodies was affinity-captured with Protein A biosensor chip (Cat. # 29127556, GE), and then a certain concentration of human or mouse CTGF was allowed to flow through the surface of the chip. The reaction signals were detected in real time with Biacore instrument to generate a binding and dissociation curve. After the dissociation was completed in each cycle, the biosensor chip was washed and regenerated with Glycine-HCl regeneration solution pH 1.5 (Cat. # BR-1003-54, GE). The running buffer for the assay was 1×HBS-EP buffer solution (Cat. # BR-1001-88, GE).

[2] = biological target: T2, human CTGF (antigen of the Biacore assays) (human, UniProt P29279 27-349); assay: Biacore, antibody captured on Protein A, CTGF in flow, 1:1 fit
T2 construct: also called antigen human CTGF; human CTGF protein
T2 sequence (looked up): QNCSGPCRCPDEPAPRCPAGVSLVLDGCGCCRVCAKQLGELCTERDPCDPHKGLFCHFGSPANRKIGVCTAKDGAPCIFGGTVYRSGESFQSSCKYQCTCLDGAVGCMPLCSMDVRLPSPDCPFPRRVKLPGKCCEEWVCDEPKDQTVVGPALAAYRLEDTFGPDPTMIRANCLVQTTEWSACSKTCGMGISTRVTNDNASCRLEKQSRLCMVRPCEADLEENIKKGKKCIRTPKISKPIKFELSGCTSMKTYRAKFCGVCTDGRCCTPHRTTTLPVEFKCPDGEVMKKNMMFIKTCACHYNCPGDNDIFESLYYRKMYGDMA
Text: as §1

[3] = biological target: T3, human CTGF protein (R&D, Cat No. 9190-CC) (human, UniProt P29279 27-349); assay: ELISA, plate coated with CTGF (R&D 9190-CC)
T3 construct: Bought protein; also called CTGF recombinant protein; CTGF (R&D)
T3 sequence: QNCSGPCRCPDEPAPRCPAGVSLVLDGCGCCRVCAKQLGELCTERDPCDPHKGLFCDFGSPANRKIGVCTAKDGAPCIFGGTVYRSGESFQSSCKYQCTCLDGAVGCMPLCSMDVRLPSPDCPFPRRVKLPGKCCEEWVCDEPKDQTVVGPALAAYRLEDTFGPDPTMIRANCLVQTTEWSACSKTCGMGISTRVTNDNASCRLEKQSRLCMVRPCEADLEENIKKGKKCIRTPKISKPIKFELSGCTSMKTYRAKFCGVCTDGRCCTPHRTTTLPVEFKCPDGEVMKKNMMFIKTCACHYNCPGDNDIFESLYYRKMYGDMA
Description: The binding activity of anti-human CTGF antibody to human CTGF protein was tested by ELISA assay and Biacore. A 96-well microtiter plate was directly coated with the CTGF recombinant protein. The signal strength upon the addition of the antibody was used to determine the binding activity of the antibody to CTGF. The specific experimental procedures were as follows:
The CTGF protein (R&D, Cat No. 9190-CC) was diluted with PBS, pH 7.4 (Shanghai Yuanpei, Cat No. B320) buffer to a concentration of 0.2 μg/ml, 50 μl/well of which was added into the 96-well microtiter plate (Corning, Cat No. CLS3590-100EA), and incubated in an incubator at 37° C. for 2 hours or at 4° C. overnight (16-18 hours). The liquid was removed, 250 μl/ well blocking solution (5% skim milk (BD skim milk, Cat No.232100) diluted in PBS) was added, and incubated in an incubator at 37° C. for 3 hours or at 4° C. overnight (16-18 hours) for blocking. After the blocking was finished, the blocking solution was removed, the plate was washed for 5 times with PBST buffer (PBS containing 0.1% Tween-20, pH 7.4), 50 μl/well of various concentrations of each of the test antibodies (antibodies purified from hybridoma or humanized antibodies) diluted with sample dilution solution were added, and incubated in an incubator at 37° C. for 1 hours. After the incubation was finished, the plate was washed for 3 times with PBST, 50 μl/well of HRP-labeled goat anti-mouse secondary antibody (Jackson Immuno Research, Cat No. 115-035-003) or goat anti-human secondary antibody (Jackson Immuno Research, Cat No. 109-035-003) diluted with sample dilution solution was added, and incubated at 37° C. for 1 hour. The plate was washed for 3 times with PBST, 50 μl/well of TMB chromogenic substrate (KPL, Cat No. 52-00-03) was added, incubated at room temperature for 5-10min, and 50 μl/well of 1 M H₂SO₄ was added to stop the reaction. The absorbance value was read by a microplate reader (Molecular Devices, VERSA max) at a wavelength of 450 nm, and the data was analyzed with GraphPad Prism 5. The binding of CTGF antibody to human CTGF protein was calculated as EC50 value.

[4] = biological target: T2, human CTGF (antigen of the Biacore …); assay: Biacore, CTGF immobilised, antibody 150 µg/ml then 50 nM TGF-β1 (competitor TGF-β1)
Description: First, the antigen human CTGF was immobilized onto a CMS biosensor chip (Cat. # BR-1005-30, GE) by amino coupling, with an immobilization level of 1500 RU, and then a high concentration of CTGF antibody (150 μg/ml) was allowed to flow through the surface of the chip for 150 s; 50 nM TGF-β1 protein was injected for 120 s, and the reaction signals were detected in real time with the Biacore T200 instrument to generate a binding and dissociation curve. After the dissociation was completed in each of the experimental cycles, the biosensor chip was washed and regenerated with regeneration buffer.
The resulting experimental data were statistically analyzed with GE Biacore T200 Evaluation version 3.0 software.

Kd [1]: 36.3 pM
koff [1]: 0.00194 s⁻¹
kon [1]: 5.34e+07 M⁻¹ s⁻¹
Kd [2]: 66.2 pM
koff [2]: 0.00227 s⁻¹
kon [2]: 3.43e+07 M⁻¹ s⁻¹
EC50 [3]: 60 pM
Function-blocking percentage (%) [4]: 53.9%
B1: Hu164-67yl (antibody, human IgG1, lambda)
heavy: EVTLKESGPVLVKPTETLTLTCTVSGFSLSTFGVHWIRQPPGKGLEWLGVIWRRGGTDYNAAFMSRLTISKDTSKSQVVFTMTNMDPVDTATYYCARDGGFDYWGQGTTVTVSSASTKGPSVFPLAPSSKSTSGGTAALGCLVKDYFPEPVTVSWNSGALTSGVHTFPAVLQSSGLYSLSSVVTVPSSSLGTQTYICNVNHKPSNTKVDKKVEPKSCDKTHTCPPCPAPELLGGPSVFLFPPKPKDTLYITREPEVTCVVVDVSHEDPEVKFNWYVDGVEVHNAKTKPREEQYNSTYRVVSVLTVLHQDWLNGKEYKCKVSNKALPAPIEKTISKAKGQPREPQVYTLPPSRDELTKNQVSLTCLVKGFYPSDIAVEWESNGQPENNYKTTPPVLDSDGSFFLYSKLTVDKSRWQQGNVFSCSVMHEALHNHYTQKSLSLSPGK
light: ETVVTQEPSLTVSPGGTVTLTCRSSIGAVTTSNYANWVQQKPGQAFRGLIGGTSNRAPWTPARFSGSLLGGKAALTLSGVQPEDEAEYYCALWYSTHYVFGGGTKLTVLGQPKANPTVTLFPPSSEELQANKATLVCLISDFYPGAVTVAWKADGSPVKAGVETTKPSKQSNNKYAASSYLSLTPEQWKSHRSYSCQVTHEGSTVEKTVAPTEC
